Numbering of substitutions follows the chain as printed.
B1: 563E10E12_hzH3L0_hIgG1 (antibody)
heavy: not shown
light: DIVMTQSPLSLPVTPGEPASISCRSSKSLLHSNGITYLFWYLQKPGQSPQLLIYQMSNLASGVPDRFSGSGSGTDFTLKISRVEAEDVGVYYCAQSLELPLTFGGGTKVEIKRTVAAPSVFIFPPSDEQLKSGTASVVCLLNNFYPREAKVQWKVDNALQSGNSQESVTEQDSKDSTYSLSSTLTLSKADYEKHKVYACEVTHQGLSSPVTKSFNRGEC
notes: Humanized, hIgG1/K
B2: 563E10E12_hzH2L0_hIgG1 (antibody)
heavy: not shown
light: B1 light
notes: Humanized, hIgG1/K
B3: 563E10E12_hzH4L1_hIgG1 (antibody)
heavy: not shown
light: B1 light with I2V
notes: Humanized, hIgG1/K
B4: 563E10E12_hzH5L0_hIgG1 (antibody)
heavy: not shown
light: B1 light
notes: Humanized, hIgG1/K
B5: 563E10E12_hzH5L1_hIgG1 (antibody)
heavy: not shown
light: B1 light with I2V
notes: Humanized, hIgG1/K
B6: 563E10E12_hzH4L0_hIgG1 (antibody)
heavy: not shown
light: B1 light
notes: Humanized, hIgG1/K
B7: 563E10E12_hzH0L0_hIgG1 (antibody)
heavy: not shown
light: B1 light
notes: Humanized, hIgG1/K
B8: 563E10E12_hzH0L1_hIgG1 (antibody)
heavy: not shown
light: B1 light with I2V
B9: 563E10E12_hzH6L0_hIgG1 (antibody)
heavy: not shown
light: B1 light
notes: Humanized, hIgG1/K
B10: 563E10E12_hzH3L1_hIgG1 (antibody)
heavy: not shown
light: B1 light with I2V
notes: Humanized, hIgG1/K
B11: 563E10E12_hzH6L1_hIgG1 (antibody)
heavy: not shown
light: B1 light with I2V
notes: Humanized, hIgG1/K
B12: 563E10E12_hzH2L1_hIgG1 (antibody)
heavy: not shown
light: B1 light with I2V
notes: Humanized, hIgG1/K
B13: 563E10E12_hzH1L1_VLPLL (antibody, human IgG1, kappa)
heavy: EVQLVESGGGLVQPGGSLKLSCAASGFNFNAYAMNWVRQASGKGLEWVGRIRSKSNNFATYYADSVTDRFTISRDDSKNTAYLQMNSLKTEDTAVYYCVRHGRRDLLYSMDFWGQGTTVTVSSASTKGPSVFPLAPSSKSTSGGTAALGCLVKDYFPEPVTVSWNSGALTSGVHTFPAVLQSSGLYSLSSVVTVPSSSLGTQTYICNVNHKPSNTKVDKKVEPKSCDKTHTCPPCPAPELVGGPSVFLLPPKPKDTLMISRTPEVTCVVVDVSHEDPEVKFNWYVDGVEVHNAKTKPPEEQYNSTLRVVSVLTVLHQDWLNGKEYKCKVSNKALPAPIEKTISKAKGQPREPQVYTLPPSRDELTKNQVSLTCLVKGFYPSDIAVEWESNGQPENNYKTTPLVLDSDGSFFLYSKLTVDKSRWQQGNVFSCSVMHEALHNHYTQKSLSLSPGK
light: B1 light with I2V
B14: 563E10E12_hzH1L1_DE (antibody, human IgG1, kappa)
heavy: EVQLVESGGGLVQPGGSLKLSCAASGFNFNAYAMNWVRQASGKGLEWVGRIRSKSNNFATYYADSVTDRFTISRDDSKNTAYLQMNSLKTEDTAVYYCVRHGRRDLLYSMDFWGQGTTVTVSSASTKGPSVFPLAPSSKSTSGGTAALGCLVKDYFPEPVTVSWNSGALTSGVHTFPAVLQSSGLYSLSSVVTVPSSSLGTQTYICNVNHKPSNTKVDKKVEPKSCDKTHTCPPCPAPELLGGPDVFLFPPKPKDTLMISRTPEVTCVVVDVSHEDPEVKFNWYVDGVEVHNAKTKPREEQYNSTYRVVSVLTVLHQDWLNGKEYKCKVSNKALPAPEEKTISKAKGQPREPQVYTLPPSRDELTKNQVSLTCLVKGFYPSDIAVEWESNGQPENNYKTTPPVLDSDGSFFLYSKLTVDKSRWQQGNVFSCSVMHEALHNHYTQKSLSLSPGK
light: B1 light with I2V
B15: 559E1B10_hzH1L1_DE (antibody, human IgG1, kappa)
heavy: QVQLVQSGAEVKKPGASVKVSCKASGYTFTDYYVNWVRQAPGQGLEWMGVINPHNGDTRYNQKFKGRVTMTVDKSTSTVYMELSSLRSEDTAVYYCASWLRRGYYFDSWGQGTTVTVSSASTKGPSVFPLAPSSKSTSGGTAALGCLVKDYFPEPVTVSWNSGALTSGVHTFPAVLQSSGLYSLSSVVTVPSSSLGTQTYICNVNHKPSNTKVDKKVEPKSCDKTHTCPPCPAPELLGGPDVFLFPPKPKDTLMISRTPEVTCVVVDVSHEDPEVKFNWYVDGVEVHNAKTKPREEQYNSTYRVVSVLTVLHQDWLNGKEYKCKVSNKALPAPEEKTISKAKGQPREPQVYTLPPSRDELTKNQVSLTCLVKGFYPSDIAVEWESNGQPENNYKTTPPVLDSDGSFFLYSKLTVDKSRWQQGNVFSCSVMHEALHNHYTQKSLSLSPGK
light: EIVLTQSPATLSLSPGERATLSCRASQSISDYLHWYQQKPGQAPRLLLKYVSQSISGIPARFSGSGSGTDFTLTISSLEPEDFAVYYCQNGHSFPLTFGGGTKVEIKRTVAAPSVFIFPPSDEQLKSGTASVVCLLNNFYPREAKVQWKVDNALQSGNSQESVTEQDSKDSTYSLSSTLTLSKADYEKHKVYACEVTHQGLSSPVTKSFNRGEC
B16: 559E1B10_hzH1L1_VLPLL (antibody, human IgG1, kappa)
heavy: QVQLVQSGAEVKKPGASVKVSCKASGYTFTDYYVNWVRQAPGQGLEWMGVINPHNGDTRYNQKFKGRVTMTVDKSTSTVYMELSSLRSEDTAVYYCASWLRRGYYFDSWGQGTTVTVSSASTKGPSVFPLAPSSKSTSGGTAALGCLVKDYFPEPVTVSWNSGALTSGVHTFPAVLQSSGLYSLSSVVTVPSSSLGTQTYICNVNHKPSNTKVDKKVEPKSCDKTHTCPPCPAPELVGGPSVFLLPPKPKDTLMISRTPEVTCVVVDVSHEDPEVKFNWYVDGVEVHNAKTKPPEEQYNSTLRVVSVLTVLHQDWLNGKEYKCKVSNKALPAPIEKTISKAKGQPREPQVYTLPPSRDELTKNQVSLTCLVKGFYPSDIAVEWESNGQPENNYKTTPLVLDSDGSFFLYSKLTVDKSRWQQGNVFSCSVMHEALHNHYTQKSLSLSPGK
light: B15 light
B17: 27B9-1G3_hzH1L2_hIgG1 (antibody, V domains shown)
VH: QVQLVQSGAEVKKPGSSVKVSCKASGGTFSGYNMNWVRQAPGQGLEWMGNIDPYYGGTNYNQKFKGRVTITADKSTSTAYMELSSLRSEDTAVYYCARETWFITTGVIKKGFYFDYWGQGTTVTVSS
VL: EIVLTQSPATLSLSPGERATLACSASSIISSNYLHWYQQKPGQAPRLLIYRTSSLASGIPARFSGSGSGTDYTLTISSLEPEDFAVYYCQQGSSIPRTFGGGTKVEIKR
notes: Humanized, hIgG1/K; hzVH01 + hzVL02
B18: 27B9-1G3_hzH3L1_hIgG1 (antibody, V domains shown)
VH: B17 VH with R67K, V68A
VL: B17 VL with A22S, Y72F
notes: Humanized, hIgG1/K; hzVH03 + hzVL01
B19: 27B9-1G3_hzH2L3_hIgG1 (antibody, V domains shown)
VH: B17 VH with G27Y, T28S, S30T
VL: B17 VL with A44S, I59V, D71S
notes: Humanized, hIgG1/K; hzVH02 + hzVL03
B20: 27B9-1G3_hzH4L2_hIgG1 (antibody, V domains shown)
VH: B17 VH with G27Y, T28S, S30T, R67K, V68A
VL: B17 VL
notes: Humanized, hIgG1/K; hzVH04 + hzVL02
B21: 27B9-1G3_hzH2L1_hIgG1 (antibody, V domains shown)
VH: B17 VH with G27Y, T28S, S30T
VL: B17 VL with A22S, Y72F
notes: Humanized, hIgG1/K; hzVH02 + hzVL01
B22: 27B9-1G3_hzH3L3_hIgG1 (antibody, V domains shown)
VH: B17 VH with R67K, V68A
VL: B17 VL with A44S, I59V, D71S
notes: Humanized, hIgG1/K; hzVH03 + hzVL03
B23: 27B9-1G3_hzH1L1_hIgG1 (antibody, V domains shown)
VH: B17 VH
VL: B17 VL with A22S, Y72F
notes: Humanized, hIgG1/K; hzVH01 + hzVL01
B24: 27B9-1G3_hzH4L3_hIgG1 (antibody, V domains shown)
VH: B17 VH with G27Y, T28S, S30T, R67K, V68A
VL: B17 VL with A44S, I59V, D71S
notes: Humanized, hIgG1/K; hzVH04 + hzVL03
B25: 27B9-1G3_hzH1L3_hIgG1 (antibody, V domains shown)
VH: B17 VH
VL: B17 VL with A44S, I59V, D71S
notes: Humanized, hIgG1/K; hzVH01 + hzVL03
B26: 27B9-1G3_hzH3L2_hIgG1 (antibody, V domains shown)
VH: B17 VH with R67K, V68A
VL: B17 VL
notes: Humanized, hIgG1/K; hzVH03 + hzVL02
B27: 27B9-1G3_hzH2L2_hIgG1 (antibody, V domains shown)
VH: B17 VH with G27Y, T28S, S30T
VL: B17 VL
notes: Humanized, hIgG1/K; hzVH02 + hzVL02
B28: 27B9-1G3_hzH4L1_hIgG1 (antibody, V domains shown)
VH: B17 VH with G27Y, T28S, S30T, R67K, V68A
VL: B17 VL with A22S, Y72F
notes: Humanized, hIgG1/K; hzVH04 + hzVL01

The binders below were run against T1, human CCR8 (human, UniProt P51685 1-355) (assay: cell-based or functional assay).
T1 sequence (P51685 whole entry): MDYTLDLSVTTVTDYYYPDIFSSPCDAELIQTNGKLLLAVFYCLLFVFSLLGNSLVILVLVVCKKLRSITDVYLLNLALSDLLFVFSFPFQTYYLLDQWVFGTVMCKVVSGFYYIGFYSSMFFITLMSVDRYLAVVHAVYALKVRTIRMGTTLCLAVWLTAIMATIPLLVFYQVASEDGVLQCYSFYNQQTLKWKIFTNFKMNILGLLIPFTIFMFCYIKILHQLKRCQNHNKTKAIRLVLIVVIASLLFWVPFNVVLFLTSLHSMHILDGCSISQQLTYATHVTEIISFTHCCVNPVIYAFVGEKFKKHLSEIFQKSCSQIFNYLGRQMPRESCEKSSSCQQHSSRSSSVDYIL

IC50 of blockade of CCL1-induced β-arrestin recruitment [µg/mL] | Binder
1.16 | B1
1.46 | B2
2.1 | B3
1.7 | B4
1.38 | B5
1.49 | B6
3.51 | B7
3.65 | B8
1.84 | B9
1.53 | B10
1.65 | B11
1.52 | B12

Molecular target: T1, human CCR8
Assay: cell-based or functional assay
Remark: another data set of the same source

EC50 of activation of Jurkat-human FcγRIIIa(158V)-NFAT with 293F-hCCR8 target cells [µg/mL] | Binder
0.0013 | B13
0.0006 | B14
0.0006 | B15
0.0014 | B16

The binders below were run against T1, human CCR8 (assay: flow cytometry on 293F-hCCR8 cells).

EC50 [µg/mL] | Binder
0.133 | B1
0.103 | B2
0.116 | B3
0.13 | B4
0.129 | B5
0.102 | B6
0.107 | B7
0.118 | B8
0.0569 | B9
0.114 | B10
0.0593 | B11
0.136 | B12
0.237 | B17
0.175 | B18
0.212 | B19
0.196 | B20
0.246 | B21
0.198 | B22
0.188 | B23
0.22 | B24
0.175 | B25
0.2 | B26
0.19 | B27
0.178 | B28

These binders were tested against T1, human CCR8 (assay: flow cytometry, competition with 10 nM AF647-human CCL1 on 293F-hCCR8 cells).

IC50 [µg/mL] | Binder
0.0761 | B1
0.0689 | B2
0.0458 | B3
0.0851 | B4
0.0878 | B5
0.0544 | B6
0.0958 | B7
0.0862 | B8
0.0543 | B9
0.0732 | B10
0.0579 | B11
0.064 | B12
0.291 | B17
0.121 | B18
0.192 | B19
0.162 | B20
0.269 | B21
0.189 | B22
0.31 | B23
0.167 | B24
0.228 | B25
0.15 | B26
0.299 | B27
0.163 | B28

Molecular target: T1, human CCR8
Assay: cell-based or functional assay
Remark: another data set of the same source

EC50 of activation of Jurkat-human FcγRIIIa(158V)-NFAT with 293F-hCCR8 target cells [µg/mL] | Binder
0.0357 | B1
0.0281 | B2
0.0259 | B3
0.0355 | B4
0.0264 | B5
0.0388 | B6
0.0286 | B7
0.0299 | B8
0.0261 | B10
0.0305 | B12
